Assay: soluble on expression in E. coli; label from the status in PepcDB or PDB records

Sequence	soluble on expression in E. coli
MQRKLATWAATDPSLRIQRLLRLITQPEWLAEAARITLSSKGAHTPGVDGVNKTMLQARLAVELQILRDELLSGHYQPLPARRVYIPKSNGKLRPLGIPALRDRIVQRAMLMAMEPIWESDFHTLSYGFRPERSVHHAIRTVKLQLTDCGETRGRWVIEGDLSSYFDTVHHRLLMKAVRRRISDARFMTLLWKTIKAGHIDVGLFRAASEGVPQGGVISPLLSNIMLNEFDQYLHERYLSGKARKDRWYWNNSIQRGRSTAVRENWQWKPAVAYCRYADDFVLIVKGTKAQVEAIREECRGVLEGSLKLRLNMDKTKIPHVNDGFIFLGHRLIRKRSRYGEMRVVSTIPQEKARNFAASLTALLWKVRISGEILLGLEHHHHHH	not soluble
MQRTLGEIMKIYFATGNPNKIKEANIILKDLKDVEIEQIKISYPEIQGTLEEVAEFGAKWVYNILKKPVIVEDSGFFVEALNGFPGTYSKFVQETIGNEGILKLLEGKDNRNAYFKTVIGYCDENGVRLFKGIVKGRVSEEIRSKGYGFAYDSIFIPEEEERTFAEMTTEEKSQISHRKKAFEEFKKFLLDRI	soluble
MQSIEHFEPQFLSFIQKEMVQDLAHDINHVLRVVSMAKRLCVEEKGKEAVVIPAAYLHDCFSFAKDHSNRSQSSAFAADKALVFLKEIGYPSEYYDEIHHAIVAHSFSAKVETRTLEAKIVQDADRLDALGAIGIARCLQVSTKLNSPLYSIDDPFCYHREPNDKAYTIDHFYAKLLTLANTMKTTSAVAEAEKRTQYMRDYLTQLESELLEHHHHHH	soluble
MQSIPIKNVGESRLVDPFQRQYYYLRLSITDQCNFRCTYCLPDGYQPEANKPSFLTLKEITHLAQAFAEMGTEKIRLTGGEPTLRKDFISIAESITNIDGIRQLAVTTNGYRMAKDVADWKKAGITSINVSVDSLDPKMFHQITGINKFDDVMRGIDRAFEVGYNKVKVNSVLMKNLNDKEFEQFLAWVKDRPIQMRFIELMQTGEMDSFFDKFHLSGQVLADKLLKNGWTLQHKSHTDGPAKVFTHPDYAGEIGLIMPYEKNFCASCNRLRVSAKGKLHLCLFGEEGIELRDLLQSHEQQGILQARIFAALQGKREHHYLHIGDTGVRNHLASIGGMGHHHHHHSH	not soluble
MQSVTPTSQYLKALNEGSHQPDDVQKEAVSRLEIIYQELINSRPPAPRTSGLMARVGKLWGKREDTKHTPVRGLYMWGGVGRGKTWLMDLFYQSLPGERKQRLHFHRFMLRVHEELTALQGQTDPLEIIADRFKAETDVLCFDEFFVSDITDAMLLGGLMKALFTRGITLVATSNIPPDELYRNGLQRARFLPAIDAIKQHCDVMNVDAGVDYRLRTLTQAHLWLSPLNDETRAQMDKLWLALAGVKRENSPTLEINHRPLATMGVENQTLAVSFTTLCVDARSQHDYIALSRLFHTVMLFDVPVMTRLMESEARRFIALVDEFYERHVKLVVSAEVPLYEIYQGERLKFEFQRCLSRLQEMQSEEYLKREHLAGLEHHHHHH	soluble
MQTKLSTWTPLNHQLSNAHVFEERRNLLGKWFEKWTDSQRKQVLQDFFSRCSAGQLKHLRQTLSSWVPEETLDFTTVLPRVISLYIFSYLDPRSLCRCAQVSWHWKNLAELDQLWMPKCLKLGWCITFTPTPFEQGVWKRQYIETVQELHISRPKVPVKEEFIVPDVKVIGSETEGSLPLTGHRDLLGLQGRSKNGNDLGKSAKGLPPWRDSDRHPTDTIRFNYLDNLHPGEHARKALLKTRQEDTIKAPSHSTYKLRKAKSLMFLSLDLSTAGKPSHNRPKWAARNLEALPADKDSIKRISQTSQWNAGIRPGPVRPPVPRLSKEGFRASQRSHRSPPTVTLFEGQP	soluble
MQTLERFFLFVTGDQPERFEKANSSCADSVILDLENAVSSEKKIIARENALNFMSNDEKVLIAVRAKIVITSRLAGSYPSVDGITTEFMKNELTIQNAIHSCKMGFSGKVCIHPPQISHVNRAFSYLKQEIEWVPQIMRLAQYPHGAFSHEGQMVDKPLLEKAKRILAHSILEHHHHHH	not soluble
MQTSLRAPTLEKVSSRPRGSRRRSRKTFTAKLTSPTFRRWSSTEKWTVASREIGSARKRFCSTRTPGAAIHSSNRSRSALRYDHIDHRALARKSPHLMPPTFIKEEIMDDELDEVKEEVVSVGEAALPTPKVELNMDHPEKDLIISISVYLGYTRTLQYHEIRLGRLMKITDRLELTGDHTLRDLKNAFSCPIDFSFSDDFSEKKPSFKDMAKNKWPSTMFFIHDTDESHVNVEFPRRLVERNFRRIACDTCKEASAHWMIVDHDNLLPNSPGYLCSSCYKEFCFDVNGNKVCQFKAVPYCDRKDIGDGRQFFTELDL	not soluble
MQVEVGQIVNTHGIKGEVKVKSNSDFTDTRFQPGEVLTVNHQNHEEQLTVLSYRVHKGFHMLKFEGINNINDVEQYKGDYLYQERDHEDIELAENEYYYSDIIGSTVFDNDNQPIGRVINIFETGANDVWVVKGEKEYLIPYIADVVKEIDIENKTIRITPMEGLLDLEHHHHHH	soluble
MQVFCFTPKGEVVKLPRGATPIDFAFAIHTRIGMACVGAKVDHMRVPLWTRLKNGQSVEVITAEGQSPQATWLEHHHHHH	not soluble
MQVIPLKPLDNKTLEEIGLDWHTNDDMSSYIADEMVVVSQKEADAYYDACNELYDMFVETAEEAIQNDRFFELDIPNALIPMIKQSFEEEVHWHIYGRFDLAGGLDGKPIKLLEFNADTPTMLYETAVIQWALLKANGYDENKQFNNLYEALGENFKRMVTLGEDTSRFEEMYEGWKILFSSVRGNIEEERTMRFLQDAAQSVGFETDFSYIDEVEFNIEEGVFKNGLNYEFLFKLIPWENIAIDEPELALLMQGMMENKNTIFLNPAYTILFQSKRFLKLLWDRYPNHPLLLETSYEPLANKKQIKKVAFGREGANSEIFEASMQSLLKTDGVYSNHKPVYQEFYELNSHNGLYYQPNVFFAYESCALGFRKGGLILDNFSKFVSHRLQ	not soluble
MQVSLNPEWLARNNDEHKIRRNDHRSPFQRDRARILHSAAFRRLQAKTQVHGTSLNDFHRTRLTHSLEAAQIGTGIVAQIKLKQPEFRELLPSDSLIDSLCLAHDIGHPPYGHGGEIALNYMMRDHGGFEGNAQTFRIVTSLEPYTEHHGMNLSRRTLLGLLKYPALLSATRAAIPPPAVAHQRQLKAKDWSPAKGIYDCDLASLDWVLEPLCESDRELLGQMRAEPSSPKEHRKTRFKSLDCSIMELADDIAYGVHDLEDAIVLGMVTRAQWQEAAAAQLAECGDPWFEEHIAELSEMLFSGKHYVRKDAIGGIVNALLTSISVKPVEAPFHNELLAFNAYIEPHMGNALEVLKHFVSQYVIQIPQVQRFEYKGQQLIMDLFEALSADPERLLPQATGEKWRKAQEQDEGMRVICDYIAAMTDAYAQRLHQQLFSAQSHY	not soluble
MRALAKLAPEEGLTLVDRPVPEPGPGEILVRVEAASICGTDLHIWKWDAWARGRIRPPLVTGHEFSGVVEAVGPGVRRPQVGDHVSLESHIVCHACPACRTGNYHVCLNTQILGVDRDGGFAEYVVVPAENAWVNPKDLPFEVAAILEPFGNAVHTVYAGSGVSGKSVLITGAGPIGLMAAMVVRASGAGPILVSDPNPYRLAFARPYADRLVNPLEEDLLEVVRRVTGSGVEVLLEFSGNEAAIHQGLMALIPGGEARILGIPSDPIRFDLAGELVMRGITAFGIAGRRLWQTWMQGTALVYSGRVDLSPLLTHRLPLSRYREAFGLLASGQAVKVILDPKA	soluble
MRCKRHTVDFSSSIGVCASCLRERLFTLAVSTAASENDDNDHRHSRISPPPLLFPRSVSPYVAPRKSDAGTGTGAGGRDSVASSNNRFFATPQVVVQSSSSEKVFESDRSFKKKKSGLSRFSSFFRTRSDDYDSRRDSCDASTVFSQPSSATTSRSWFSKVISVRSKKQSTTNTCYIEDLIASESDHHHHNQNRPRQRYCRGMSPAGDSTTNDESVEESPGRLRRTPVMGTPGRKKTATIGIGRSVSGMAFCLSPLVRAKPNCSSNWKAKFPPDFGYSGELKSPAKPHLSTAASFCGNRSKKLVDLGRVDHRR	soluble
MRCQPFCRNLAGFPQNSPAQSTTMTYTHGSALPSTDDVTIDADVATEELTGTAAFDAGVGDMPSWEELVAQHADSVYRLAFRLSGNQHDAEDLTQETFMRVFRSLKGYQPGTFEGWLHRITTNLFLDMVRHRAKIRMEALPEDYERVPGTDMTPEQAYNVSNLDPALQKALDDLSPDFRVAVVLCDVVGMSYDEIADTLGVKMGTVRSRIHRGRSQLRAHLENQATSDEGAQLLLATGR	not soluble
MRDVTKGSFNDSPNNGFFEIQYKEDGVYLTVHPPIGKGKAVEVNDVISRLTQKKIVYDKEMVELAVQRASNVPVKIGEPQEELKLDATIDVNISPDKMKATMVIRPPDGGRMLTKDEMMEILKNSGVRYGINESMLENVSKYPVYNEIIVIAEGTPPINGQNGKVEFHFDLKKERKPTILEDGRVDFRELNLIESVKKGQVLCTLVPPLPGTPGRTVEDIEVPALDGKPAVLPKGKNVEISEDGQSLIAGIDGQVNYIDGKVSVFANYEVPADVDNSTGNISFVGNVIIRGNVLSGFTVEAGGSVEVMGVVEAAVIKADGDIILRRGMQGLGRGILKSGGDIIAKYIENSIIEAKGDIKAEAIMHSNVKCGNKLELSGKKGLLIGGKCKVGKEIVAKVIGSYLATHTDIEVGVDPQIKERYKELRDEIRKIEEDLVKAEQAITILKKLEAAGKLTPEKQELMARSIRTKIYYSNRLGELKEELIITEQRLQKEADGKIRVFDHIYPGTKVTIGTSMMYVKEDLQYCTLYRDGADIRVGPIDK	soluble
MREEDRRGGVKLSLTRLFLHERTVEIILRILKAEENGEKIYPLQISTDIGSPYSYVSKVLGELEKCSLVESRPEGRMRVVSLTPYGKVVASMLRDLYTELEKDFNSRMKLDILKDVYSNANGDVRVYLPVMAELEMLAKSTNDGFVVEEAKKLISEVKRKIEGAK	soluble
MREGWRDEPAARGGCQCGRVRYSVPAGPKKSTVCHCRMCQRATGNAFAPLLEVPTADVVWEGTPAVWASSSVAERGFCATCGTPLFYRSDETTELMAGTLAGFDFRPIANHGIEGRVGWLGGLAALPDRATRPELLSRVVSHQAPDE	not soluble
MREWKIIDSTLREGEQFEKANFSTQDKVEIAKALDEFGIEYIEVTTPVASPQSRKDAEVLASLGLKAKVVTHIQCRLDAAKVAVETGVQGIDLLFGTSKYLRAPHGRDIPRIIEEAKEVIAYIREAAPHVEVRFSAEDTFRSEEQDLLAVYEAVAPYVDRVGLADTVGVATPRQVYALVREVRRVVGPRVDIEFHGHNDTGCAIANAYEAIEAGATHVDTTILGIGERNGITPLGGFLARMYTLQPEYVRRKYKLEMLPELDRMVARMVGVEIPFNNYITGETAFSHKAGMHLKAIYINPEAYEPYPPEVFGVKRKLIIASRLTGRHAIKARAEELGLHYGEEELHRVTQHIKALADRGQLTLEELDRILREWITAHHHHHH	soluble
MRFGPVALSAAKGALLAHSRKAPGWTLAKGTRLGDEDLALLAGLGVAEVVVARLDPGDVHEDEAAARVAAVLLGPGLTLGDAFTGRANLFAGGDGLLRLDAARFDRLNALCEGLTVATLPPFAKVAPRQMVATVKIIPFALPETVIAQAEALLAGAPALEVALFRPMRLALIQTHLPETAGKMLDKTASVTAGRMAALGGGLTVDRRCPHDTRALAACLSAVSAEKDVDLIAVAGASAIVDRGDVIPAAITRAGGRVDHLGMPVDPGNLILLGELAGRVVLGLPGCARSPAINGFDWVLDRLCAGLAVGGADLMAMGVGGLLKDTTARTQPRMAAVTHPSPAAPPRLGALVLAAGLSRRMGGVNKLLLDWRGKPLVAHAVDTVLAAGPAAVAVVIGHQGKAVRAALEGRAIALVENPDPGRGLGSSLKRGLAALPADLDGVIVCLGDMPGLTPRLLSRLIAAFAPLEGRAICLPTFGGRRGNPVLFAARFLPEMMEITGDIGARPVIAAHPDQTCEVAMDALAEGASVLMDVDTPEAAKALLSAGGLEHHHHHH	not soluble

— the DeepSol protein solubility set
